Values quoted from earlier work as cited in US12186373B2, “Compositions in the form of an injectable aqueous solution comprising amylin, an amylin agonist receptor or an amylin analogue and a co-polyamino acid” (ADOCIA, priority 2017, dated 2025).

Details: acidic pH

Substance: amylin: peptide of 37 amino acids which is stored and co-secreted with insulin (KCNTATCATQRLANFLVHSSNNFGAILSSTNVGSNTY; Islet amyloid polypeptide; UniProt P10997 34-70, looked up)
- time for which amylin is stable: about fifteen minutes
